{
  "source": "paper doi:10.1101/2021.10.13.464218",
  "about": "(bioRxiv, 2021)",
  "binders": {"B1": {"name": "IB10 nanobody against intimin, yeast-displayed (VHH)", "VHH": "QVQLVESGGGSVQAGGSLRLSCKASGFTFPYSDMGWYRQTPGNECELVSTTGPESDPSFWYADSVKGRFTISRDNTKNTVYLQMNDLKPEDTGMYVCASELGAGSGRCYGYHYWGQGTQVTVSS"}, "B2": {"name": "Nb3 (anti-P53TA) nanobody, yeast-displayed (VHH)", "VHH": "QVQLQESGGGSVRPGESLRLSCIAAGTLFSGKAVGWYRQAPGKDRELVAALSSGRETYYIGPVKGRFIISRDDNKDTLYLQMNNLKLEDTAIYTCRLGLHWGQGTQVTVSS"}},
  "key": {"[1]": {"molecular_target": "intimin (EHEC adhesin), overexpressed on the E. coli surface (Escherichia coli O157:H7 (EHEC), …, UniProt P43261)", "sequence (P43261 40-934)": "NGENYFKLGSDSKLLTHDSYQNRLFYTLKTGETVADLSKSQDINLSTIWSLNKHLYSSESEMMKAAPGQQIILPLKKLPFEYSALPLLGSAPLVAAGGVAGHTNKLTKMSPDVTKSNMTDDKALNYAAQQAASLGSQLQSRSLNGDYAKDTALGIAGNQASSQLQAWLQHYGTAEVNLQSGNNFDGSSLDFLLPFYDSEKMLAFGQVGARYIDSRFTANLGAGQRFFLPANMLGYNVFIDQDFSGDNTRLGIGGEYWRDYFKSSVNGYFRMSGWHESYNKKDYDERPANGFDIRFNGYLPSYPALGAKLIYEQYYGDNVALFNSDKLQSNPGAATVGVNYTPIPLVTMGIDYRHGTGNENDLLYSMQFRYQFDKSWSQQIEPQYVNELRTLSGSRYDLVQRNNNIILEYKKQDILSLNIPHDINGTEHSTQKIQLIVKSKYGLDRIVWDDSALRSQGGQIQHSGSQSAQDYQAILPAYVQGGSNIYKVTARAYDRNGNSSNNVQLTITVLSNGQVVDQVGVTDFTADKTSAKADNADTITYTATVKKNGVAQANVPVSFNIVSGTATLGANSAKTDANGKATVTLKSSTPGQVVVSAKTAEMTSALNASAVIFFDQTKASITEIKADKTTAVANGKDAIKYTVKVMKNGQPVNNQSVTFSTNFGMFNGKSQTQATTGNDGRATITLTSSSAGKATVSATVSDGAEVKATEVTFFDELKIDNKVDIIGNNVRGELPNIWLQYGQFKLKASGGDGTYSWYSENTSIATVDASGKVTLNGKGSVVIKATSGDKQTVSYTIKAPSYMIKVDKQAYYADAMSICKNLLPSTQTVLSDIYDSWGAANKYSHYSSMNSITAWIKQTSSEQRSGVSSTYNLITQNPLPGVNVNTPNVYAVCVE", "test": "flow cytometry on cells"}, "[2]": {"molecular_target": "Ag2 (EPEA), displayed on E. coli (synthetic EPEA peptide tag (sequence …))", "test": "flow cytometry on cells"}},
  "data": [
    {"binder": "B1", "values": [
      {"measurement": "binding result", "setting": "[1]", "result": "binds"}
    ]},
    {"binder": "B2", "values": [
      {"measurement": "binding result", "setting": "[2]", "result": "no binding"}
    ]}
  ]
}
